Earlier results in article PMC4046138.

Biological target: mesothelin (Homo sapiens) (UniProt Q13421)
Sequence of UniProt Q13421 (Q13421 other isoform, or with tags, fused parts or gaps): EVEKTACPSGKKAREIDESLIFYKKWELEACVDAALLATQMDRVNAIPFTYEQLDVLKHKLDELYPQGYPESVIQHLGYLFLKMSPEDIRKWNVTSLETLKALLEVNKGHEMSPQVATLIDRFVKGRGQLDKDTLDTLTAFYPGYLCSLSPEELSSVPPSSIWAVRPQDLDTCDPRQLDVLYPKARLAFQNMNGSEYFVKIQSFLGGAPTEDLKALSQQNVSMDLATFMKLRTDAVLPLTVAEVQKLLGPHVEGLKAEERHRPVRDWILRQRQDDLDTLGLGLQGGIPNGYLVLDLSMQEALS

MUC16 (from UniProt Q8WXI7)
Kd: 5 nM
